According to the Human Domainome abundance scans (Beltran et al. 2025):
± gives the uncertainty stated by the source.

B1: Cyclin-F, residues 28 to 80; numbered along this chain, P41002 (parent)
chain: RNLTILSLPEDVLFHILKWLSVEDILAVRAVHSQLKDLVDNHASVWACASFQE

Variants of: B1
Assay: abundance fitness (aPCA) (normalised: wild type 0, dead -1); higher = more abundant; growth selection in yeast, the domain comes from the species named
Settings: Homo sapiens

Abundance fitness: each site, then its substitutions
A27: W -0.622 ± 0.14, K -0.175 ± 0.14, T 0.087 ± 0.15, H -0.259 ± 0.38, F -0.945 ± 0.24, I -0.285 ± 0.24, R -0.047 ± 0.085, Y -0.876 ± 0.25, M -0.273 ± 0.12, G -0.787 ± 0.098, Q -0.089 ± 0.18, C -0.091 ± 0.11, E -0.715 ± 0.19, P -0.44 ± 0.17, V -0.238 ± 0.084
L26: Q -0.147 ± 0.11, E -0.5 ± 0.13, S -0.5 ± 0.12, F -0.424 ± 0.13, R -0.169 ± 0.08, P -0.694 ± 0.17, T -0.396 ± 0.14, Y -0.386 ± 0.16, G -0.451 ± 0.094, I -0.023 ± 0.29, D -0.961 ± 0.29, A -0.283 ± 0.1, M -0.183 ± 0.14, C -0.256 ± 0.13, K -0.043 ± 0.17, V -0.452 ± 0.1
K18: M -0.251 ± 0.16, V -0.452 ± 0.11, R -0.14 ± 0.091, A -0.314 ± 0.13, S -0.215 ± 0.097, P -0.72 ± 0.17, H -0.122 ± 0.17, I -0.449 ± 0.16, E -0.148 ± 0.13, C -0.597 ± 0.2, Q -0.081 ± 0.16, D -0.483 ± 0.19, N -0.107 ± 0.14, Y -0.505 ± 0.22, L -0.553 ± 0.092, F -0.573 ± 0.16, G -0.132 ± 0.1, T -0.254 ± 0.13
Q34: R 0.109 ± 0.062, P -0.807 ± 0.11, L -0.368 ± 0.064, C -0.248 ± 0.086, Y -0.374 ± 0.12, D -0.446 ± 0.087, E -0.455 ± 0.078, H -0.121 ± 0.1, F -0.4 ± 0.1, T 0.004 ± 0.071, M -0.156 ± 0.075, V -0.126 ± 0.061, N -0.417 ± 0.13, I -0.129 ± 0.088, W -0.753 ± 0.1, S -0.06 ± 0.065, A -0.111 ± 0.062
A30: F -0.62 ± 0.16, W -0.836 ± 0.12, K -0.339 ± 0.14, L 0.377 ± 0.075, S 0.111 ± 0.081, V -0.125 ± 0.098, M 0.188 ± 0.11, Q -0.031 ± 0.11, N -0.356 ± 0.21, C 0.089 ± 0.13, T -0.04 ± 0.12, P -0.844 ± 0.14, R 0.053 ± 0.074, I -0.264 ± 0.14
W19: C 0.229 ± 0.11, H 0.257 ± 0.18, E 0.227 ± 0.16, G -0.273 ± 0.097, V -0.226 ± 0.084, K 0.218 ± 0.25, P -0.458 ± 0.14, L 0.293 ± 0.084, D -0.137 ± 0.12, Y 0.397 ± 0.17, T -0.269 ± 0.14, R -0.154 ± 0.097, S -0.057 ± 0.091, N 0.223 ± 0.11, M 0.33 ± 0.13
S21: W -0.824 ± 0.16, E -0.092 ± 0.14, F -0.731 ± 0.15, Y -0.566 ± 0.19, T -0.126 ± 0.1, C -0.311 ± 0.18, I -0.405 ± 0.23, L -0.855 ± 0.12, V -0.621 ± 0.12, D 0.135 ± 0.13, R -0.157 ± 0.09, N -0.148 ± 0.25, M -0.815 ± 0.23, P -0.047 ± 0.12, K -0.272 ± 0.17, G -0.226 ± 0.1, H -0.334 ± 0.19, A -0.113 ± 0.1, Q -0.473 ± 0.17
R29: V -0.541 ± 0.12, W -0.814 ± 0.15, I -0.793 ± 0.18, H -0.65 ± 0.14, T -0.909 ± 0.2, G -0.795 ± 0.12, M -0.541 ± 0.14, F -0.574 ± 0.17, Y -0.713 ± 0.21, S -0.655 ± 0.1, C -0.635 ± 0.19, A -0.827 ± 0.19, L -0.833 ± 0.11, Q -0.801 ± 0.15, N -0.955 ± 0.19, E -0.863 ± 0.18, P -0.716 ± 0.16
E23: W -0.577 ± 0.23, T -0.477 ± 0.18, C -0.627 ± 0.23, H -0.358 ± 0.16, V -0.372 ± 0.13, K -0.105 ± 0.14, S -0.186 ± 0.11, L -0.856 ± 0.15, P -0.236 ± 0.18, G -0.48 ± 0.12, M -0.802 ± 0.24, D 0.057 ± 0.24, Y -0.62 ± 0.2, A -0.053 ± 0.14, R -0.001 ± 0.12, N -0.319 ± 0.21
I25: C -0.527 ± 0.15, M -0.346 ± 0.13, A -0.602 ± 0.1, S -0.783 ± 0.13, T -0.703 ± 0.17, R -0.534 ± 0.087, N -1.14 ± 0.41, Y -0.971 ± 0.23, P -0.806 ± 0.15, E -0.809 ± 0.17, L -0.33 ± 0.088, D -0.83 ± 0.17, K -0.568 ± 0.15, V -0.292 ± 0.097, H -0.82 ± 0.25, W -0.41 ± 0.1, G -1.08 ± 0.14
I16: K -1.11 ± 0.43, E -0.773 ± 0.23, R -0.501 ± 0.093, M -0.32 ± 0.14, L -0.646 ± 0.11, P -0.673 ± 0.22, G -0.701 ± 0.095, H -1.02 ± 0.31, T -0.805 ± 0.22, W -0.823 ± 0.17, C -0.341 ± 0.18, N -1.04 ± 0.34, Y -0.641 ± 0.24, S -0.664 ± 0.15, A -0.901 ± 0.14
V28: E -0.82 ± 0.18, L 0.168 ± 0.083, C -0.173 ± 0.17, P -0.88 ± 0.15, M 0.036 ± 0.14, N -1.09 ± 0.37, W -0.705 ± 0.13, F -0.396 ± 0.14, A -0.774 ± 0.13, Q -0.716 ± 0.2, H -0.372 ± 0.22, D -0.885 ± 0.21, R -0.833 ± 0.12, K -0.71 ± 0.2, T -0.615 ± 0.15, S -0.823 ± 0.12, G -0.759 ± 0.1, I -0.184 ± 0.09
V22: Q -0.267 ± 0.12, D -0.405 ± 0.12, A -0.142 ± 0.085, R -0.177 ± 0.067, W -0.087 ± 0.079, S -0.452 ± 0.083, Y 0.02 ± 0.098, F -0.141 ± 0.1, C -0.286 ± 0.091, H -0.122 ± 0.14, E -0.285 ± 0.11, G -0.553 ± 0.071, K -0.132 ± 0.14, T -0.168 ± 0.11, I 0.005 ± 0.12
S33: A -0.648 ± 0.072, V -0.544 ± 0.066, N -0.67 ± 0.14, R -0.158 ± 0.061, G -0.554 ± 0.064, Q -0.672 ± 0.11, E -0.675 ± 0.081, M -0.72 ± 0.089, W -0.48 ± 0.078, K -0.294 ± 0.091, Y -0.791 ± 0.12, I -0.855 ± 0.14, F -0.801 ± 0.11, H -0.443 ± 0.11, T -0.247 ± 0.08, C -0.828 ± 0.15
L17: Q -0.782 ± 0.21, I 0.148 ± 0.26, S -0.896 ± 0.14, A -0.781 ± 0.13, R -0.774 ± 0.12, V -0.169 ± 0.093, T -0.63 ± 0.18, H -0.678 ± 0.46, F 0.056 ± 0.12, D -0.868 ± 0.28, E -1.06 ± 0.23, C -0.223 ± 0.14, G -0.547 ± 0.099, N -0.926 ± 0.4
H32: R -0.787 ± 0.11, G -0.591 ± 0.11, K -0.912 ± 0.2, E -0.653 ± 0.14, W -0.937 ± 0.19, A -0.438 ± 0.1, S 0.096 ± 0.081, M -1.09 ± 0.3, I -0.825 ± 0.23, V -0.532 ± 0.1, L -0.757 ± 0.13, Y -0.895 ± 0.13, C 0.209 ± 0.13, P -0.737 ± 0.15, T -0.503 ± 0.14, N 0.262 ± 0.1
D24: A -0.631 ± 0.13, Y -0.544 ± 0.15, I -0.684 ± 0.24, T -0.68 ± 0.14, Q -0.739 ± 0.31, G -0.624 ± 0.1, M -0.595 ± 0.17, W -0.717 ± 0.14, R -0.797 ± 0.12, L -0.718 ± 0.11, V -0.784 ± 0.15, S -0.882 ± 0.12, E -0.388 ± 0.14, C -0.716 ± 0.13, F -1.06 ± 0.34, H -0.708 ± 0.25, P -0.661 ± 0.17, K -0.832 ± 0.2, N -1.11 ± 0.21
L20: P -0.893 ± 0.27, E -0.982 ± 0.23, W -0.747 ± 0.19, S -0.705 ± 0.15, T -0.923 ± 0.21, G -0.605 ± 0.15, F -1.01 ± 0.24, V -0.484 ± 0.11, A -0.667 ± 0.16, R -0.853 ± 0.14, N -0.759 ± 0.23, Q -0.893 ± 0.26, Y -0.75 ± 0.29, H -0.812 ± 0.48, C -0.42 ± 0.16, K -0.838 ± 0.41, D -0.675 ± 0.24, I -0.673 ± 0.23
L35: P -0.842 ± 0.18, F -0.172 ± 0.16, S -0.786 ± 0.14, V -0.768 ± 0.11, D -0.528 ± 0.29, E -0.745 ± 0.14, K -0.805 ± 0.2, I -0.158 ± 0.22, A -0.772 ± 0.12, H -0.831 ± 0.34, Q -0.861 ± 0.18, R -0.884 ± 0.14, C -0.643 ± 0.22
H15: V -0.55 ± 0.13, N 0.226 ± 0.14, S -0.235 ± 0.12, T -0.455 ± 0.13, Y -0.388 ± 0.075, W -0.561 ± 0.18, R 0.222 ± 0.089, Q -0.356 ± 0.17, P -0.731 ± 0.17
V31: Q -0.532 ± 0.15, E -1.16 ± 0.24, T 0.124 ± 0.11, G -0.672 ± 0.11, D -0.729 ± 0.2, Y -0.964 ± 0.23, W -0.769 ± 0.19, N -0.586 ± 0.31, H -0.976 ± 0.22, K -0.809 ± 0.24, A -0.046 ± 0.089, C -0.056 ± 0.1, I -0.594 ± 0.11, S 0.191 ± 0.09, R -0.754 ± 0.14, F -0.747 ± 0.17, M -0.681 ± 0.16
